Molecular target: α-synuclein (AS) expressed in non-mitotic SH-SY5Y cells, P37840
Test: proximity ligation
Settings: remark: other sources report otherwise

reduction of the PLA signal by 0.5 μM CPA: 50%
B1: SERCA2 in SH-SY5Y cells, P16615 1-1042 (enzyme)
chain: MENAHTKTVEEVLGHFGVNESTGLSLEQVKKLKERWGSNELPAEEGKTLLELVIEQFEDLLVRILLLAACISFVLAWFEEGEETITAFVEPFVILLILVANAIVGVWQERNAENAIEALKEYEPEMGKVYRQDRKSVQRIKAKDIVPGDIVEIAVGDKVPADIRLTSIKSTTLRVDQSILTGESVSVIKHTDPVPDPRAVNQDKKNMLFSGTNIAAGKAMGVVVATGVNTEIGKIRDEMVATEQERTPLQQKLDEFGEQLSKVISLICIAVWIINIGHFNDPVHGGSWIRGAIYYFKIAVALAVAAIPEGLPAVITTCLALGTRRMAKKNAIVRSLPSVETLGCTSVICSDKTGTLTTNQMSVCRMFILDRVEGDTCSLNEFTITGSTYAPIGEVHKDDKPVNCHQYDGLVELATICALCNDSALDYNEAKGVYEKVGEATETALTCLVEKMNVFDTELKGLSKIERANACNSVIKQLMKKEFTLEFSRDRKSMSVYCTPNKPSRTSMSKMFVKGAPEGVIDRCTHIRVGSTKVPMTSGVKQKIMSVIREWGSGSDTLRCLALATHDNPLRREEMHLEDSANFIKYETNLTFVGCVGMLDPPRIEVASSVKLCRQAGIRVIMITGDNKGTAVAICRRIGIFGQDEDVTSKAFTGREFDELNPSAQRDACLNARCFARVEPSHKSKIVEFLQSFDEITAMTGDGVNDAPALKKAEIGIAMGSGTAVAKTASEMVLADDNFSTIVAAVEEGRAIYNNMKQFIRYLISSNVGEVVCIFLTAALGFPEALIPVQLLWVNLVTDGLPATALGFNPPDLDIMNKPPRNPKEPLISGWLFFRYLAIGCYVGAATVGAAAWWFIAADGGPRVSFYQLSHFLQCKEDNPDFEGVDCAIFESPYPMTMALSVLVTIEMCNALNSLSENQSLLRMPPWENIWLVGSICLSMSLHFLILYVEPLPLIFQITPLNVTQWLMVLKISLPVILMDETLKFVARNYLEPGKECVQPATKSCSFSACTDGISWPFVLLIMPLVIWVYSTDTNFSDMFWS

— article PMC5934765
